Measurements: the supplement of paper PMC7125110
± gives the standard error. Fewer inactive variants are shown than the library holds.

B1: glmS ribozyme (parent)
chain: AUAAAAGCGCCAGAACUACAGAAAUGUAGUUGACGAGGAGGAGGUUUAUCGAAUUUUCGGCGGAUGCCUCCAAA

Variants of: B1
Assay: self-cleavage kobs at 2500 uM GlcN6P; higher = faster cleavage; RNA array
Settings: with glucosamine-6-phosphate
How it was run: (§1)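 Barcoded ribozyme variants on sequenced MiSeq chips were transcribed in situ by E. coli RNA polymerase and followed at 37 °C through a hybridised Cy3 probe. Glucosamine-6-phosphate at 40 μM to 10 mM in HEPES/KCl/Mg(OAc)2 buffer was flowed in, and tiles were imaged over ~14 h. Signals were normalised to baseline and to non-cleaving reference variants, and per-tile medians were fit to one- or two-exponential decays to give kobs. Weighted Michaelis–Menten fits across concentrations gave kcat and KM.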

Variant | self-cleavage kobs at 2500 uM GlcN6P [s⁻¹]
A15U G32A A39U C71U | 0.000236 ± 0.00011
G35C U47G C50G G66A | 7.72e-05 ± 2.7e-05
C8G G21U U55G G60U C67G | < 1e-05
G44C U46G G63A | < 1e-05
A6C A14U C50G C61G C68G C70U | 0.000499 ± 0.00017
A39G U55G A64G | 0.00731 ± 0.0025
A12U A48U G51C G60U | < 1e-05
G29C G63C | < 1e-05
G29A U57G C70G | 0.000123 ± 5e-05
A33G U46G C68U C71G | 0.000183 ± 5.3e-05
A6G G40C A42U | < 1e-05
G29U G32C U56A | 7.28e-05 ± 1.4e-05
A33G A42U U49A G60A | < 1e-05
G7U G35U U54C G60A C67G C68A | 5.54e-05 ± 9.5e-06
A15G U56G C58U | 3.75e-05 ± 1.4e-05
A39G U54A C71G | 0.00114 ± 0.00046
C11A U54A U55G | 0.000135 ± 4.1e-05
G9C A48C G51C | < 1e-05
G41C G51U U69C | < 1e-05
A12C A14G U69G | 0.000112 ± 3.2e-05

Variant | self-cleavage kobs at 2500 uM GlcN6P [s⁻¹]
A39G A53C C70A | 0.000143 ± 4.2e-05
U31G A36U C50A C71G | 0.000265 ± 0.00012
G9C C67A C70G | < 1e-05
C16U A52G A53G C61U | < 1e-05
G13A U30A C58A | 0.000138 ± 3.4e-05
A36G U49G U55G | < 1e-05
A39G A42U C67U | 9.25e-05 ± 2.6e-05
C10G G13C A42U A52C | < 1e-05
C34A U49G | < 1e-05
A12G G40U C67U | < 1e-05
A36C G37A A39C C50U A53C | < 1e-05
A33C C34A G62U C71U | < 1e-05
U30A C58A C67U | 4.25e-05 ± 1.9e-05
G9A A15G G26U | < 1e-05
A39C A53U A64G | 0.00188 ± 0.00024
A14C C34G G62U | < 1e-05
C16A A36C A42C U55C U56A U57G C58U C71G | < 1e-05
U31G C68U C71U | 7.95e-05 ± 3.1e-05
G9A A12G U54A C58G C61G C70U | 0.000354 ± 0.00012

Variants of: B1
Assay: self-cleavage kobs at 10000 uM GlcN6P; higher = faster cleavage; RNA array
Settings: with glucosamine-6-phosphate
How it was run: as §1

Variant | self-cleavage kobs at 10000 uM GlcN6P [s⁻¹]
A15U G32A A39U C71U | 0.000208 ± 6.3e-05
C11A U54A U55G | 0.000124 ± 1.8e-05
A39G A53C C70A | 0.000165 ± 4.3e-05
A36C G37A A39C C50U A53C | < 1e-05
